Where a name gives a salt, the structure may show the parent alone.
Legend:
[1] = target: T1, BvPgb1.2 (Beta vulgaris, UniProt V5QR23); test: peroxidase assay, absorbance of ABTS radical cation at […] nm; format: biochemical; conditions: 10 mM H2O2, 5 mM ABTS, 50 mM Tris-HCl pH 8.5; protein incubated at 22 or 37 °C
T1 construct: gene Bv9_224250_aayd.t2; recombinant from E. coli BL21(DE3), pET-DEST42

[2] = target: BvPgb1.2 Cys86Ala mutant (Beta vulgaris (sugar beet)); test: SEC; analytical SEC, Superdex 75 10/300 GL, 50 mM NaP with 150 mM NaCl pH 7.0, 100 µL of 1 mg/mL protein; MW from retention volume on a calibration curve; dimer of monomers
[3] = target: Wildtype (WT) BvPgb1.2, Class 1 phytoglobin from sugar beet (Beta vulgaris) (Beta vulgaris (sugar beet)); test: as above

T1 sequence (V5QR23 1-171): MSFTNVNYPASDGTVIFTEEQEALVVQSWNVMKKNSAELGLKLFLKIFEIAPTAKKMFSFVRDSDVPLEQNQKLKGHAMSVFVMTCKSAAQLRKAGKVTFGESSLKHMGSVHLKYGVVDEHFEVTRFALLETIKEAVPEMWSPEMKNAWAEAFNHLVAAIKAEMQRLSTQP

CCn1c(=NN=c2sc3cc(S(=O)(=O)O)ccc3n2CC)sc2cc(S(=O)(=O)O)ccc21 [2,2′-azino-di-(3-ethylbenzthiazolinesulfonic acid) diammonium salt]
peroxidase assay, absorbance of ABTS radical cation at 415 nm [1]: The detectable radical formation of ABTS was used in this study to quantify this

BvPgb1.2 Cys86Ala mutant (natural protein)
degree of dimerization [2]: > 99%
stoichiometry N [2]: 2

Wildtype (WT) BvPgb1.2, Class 1 phytoglobin from sugar beet (Beta vulgaris) (natural protein)
degree of dimerization [3]: > 99%
stoichiometry N [3]: 2
